This is an account of results in paper PMC11301264, “Bactericidal human monoclonal antibody 1B1 shows specificity for meningococcal factor H binding protein variant 2 and displaces human factor H” (FASEB BioAdvances, 2024).

A value given as a limit tells only on which side of the number the result lay.

For test [1], the target named is fHbp variant 1.1 on live meningococci of MenB strain MC58 (Neisseria meningitidis (endogenous in strain MC58)) (UniProt Q9JXV4).
The target of test [2] is fHbp variant 3.28 on live meningococci of MenB strain M1239 (Neisseria meningitidis (endogenous in strain M1239)) (UniProt E6MV22).
Test [3] has as its target T1, factor H binding protein (fHbp) variant 2.16, wild type, recombinant (Neisseria meningitidis serogroup B, …, strain).
T1 construct: Construct described in earlier work; vector pET-21b is named for the template plasmid; also called fHbp var 2; v2.16
T1 chain: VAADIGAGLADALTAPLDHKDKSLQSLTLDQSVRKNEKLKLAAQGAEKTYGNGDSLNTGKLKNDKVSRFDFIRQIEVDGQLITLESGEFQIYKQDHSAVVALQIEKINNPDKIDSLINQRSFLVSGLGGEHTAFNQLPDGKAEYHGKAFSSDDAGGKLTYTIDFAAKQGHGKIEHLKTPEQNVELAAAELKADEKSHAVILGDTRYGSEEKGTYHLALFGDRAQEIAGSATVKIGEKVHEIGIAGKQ
The experiment in a line: BLI; mAb (1B1 or 4B3, 10 mcg/mL) captured via Fc on Anti-Fc Human (AHC) biosensors; fHbp in solution, 150 to 1 nM; 30°C; 1 x PBS, 1% (w/v) BSA; 1:1 fit. The following applies: both partners purified. A general note: In BLI a coated tip is dipped into the sample, and binding shifts an interference pattern.

B1: human monoclonal antibody 1B1, full-length IgG1 (antibody, V domains shown)
VH: EVQLVESGGNLVQPGGSLRLSCAASGFTFSSYSMNWVRQAPGKGLEWVSYISSSSSTIYYADSVKGRFTISRDNAKNSLYLQMNSLRAEDTAVYYCARVAAGLKDWGQGTLVTVSS
VL: EIVLTQSPGTLSLSPGERATLSCRASQSISSSYLAWYQQKPGQAPRLLIFGASSRATGIPDRFSGSGSGTGFTLTISRLEPEDFAVYYCQHYDSSLPMTFGQGTKVEIK
notes: also called humAb 1B1; mAb 1B1; source: mammalian cells, recombinant, purified as described previously
By Kd is commonly meant a measure of binding affinity in units of concentration. In test [1], B1 showed a hSBA (human complement) titer against MenB strain MC58 of less than 4 titer and a rSBA (rabbit complement) titer against MenB strain MC58 of less than 16 titer. In test [2], the hSBA (human complement) titer against strain 5/99DD complemented with fHbp 3.28 was less than 4 titer and the rSBA (rabbit complement) titer against strain 5/99DD complemented with fHbp 3.28 was less than 16 titer. The Kd in test [3] was found to be 0.24 nM.
